Results as given in article PMC11144326, “Structure–function characterization of two enzymes from novel subfamilies of manganese peroxidases secreted by the lignocellulose-degrading Agaricales fungi Agrocybe pediades and Cyathus striatus” (Biotechnology for Biofuels and Bioproducts, 2024).
Substitutions are numbered along the chain they refer to. Names may count otherwise. Like-named read-outs stand apart in the source and are kept apart here.

B1: Ape-MnP1 (Agrocybe pediades) (protein)
chain: TICADGTSVANGACCKLIPVVKDLTENLFEGECGDAAHGALRLVFHDAIAISPTLGGGGADGSIAVFNATELTFHANTGIDDVLDAVGPFLLKHSDVMTPGDFIQLAGAVSLTQCNGAPRVKFVMGRPPPKAAAPNLLVPEPFDSVATILQRFGELGFTKEETVAVIGGSHSVAGADDIVPNEQGIPFDQTPSIFDTQIFVDVQLRGTMIPGNGTTEGEVETAVPGTVRLQSDHLLARDASTSCIWQSFVNQQSKMAQVFGEAIFKMSLLGQTQSKLIDCSEVIPRAIPFSHGPATLPPGQTLKDIEQACAASPFPTLSTQPGPVTSVPAIPQADDS
B2: Cst-MnP1 (Cyathus striatus) (protein)
chain: VTCPDGHVTANRACCALFPVVQNLQENLFDGGECGEEAHSALRLSFHDAIGFSLNSNKGGGADGSILLFNATELTFHANGGIDDITSRQFPVFETTGLTPGDFVHLAGAVGTANCPGAPRLQFMFGRPPPIAPAPDLTVPEPTDDVDAILARFADAGFDASEVVALLSSHTIAAADVVDVTIPGTPFDSTVGTFDTQVFLEVLLAGRSFPGNGSQPGEVLSPLAGEMRLQSDFVVSRDSRTACLWQAMVNNQQLMVSSFAAAMAKLQVLGQNVNTMVDCSDVIPEPAPFAGPIKFPASFSMADVEQACASTFPQIQTVAGPAPTVAPVPGS
B3: Cst-MnP1 (Cyathus striatus; S40A) (protein)
chain: B2 chain with S40A
B4: Cst-MnP1 (Cyathus striatus; E36A) (protein)
chain: B2 chain with E36A

Assays:
Ape-MnP1 [1] = assay: steady-state oxidation, coerulignone formation at […] nm; format: biochemical, Agrocybe pediades; settings: 0.3 mM H2O2, 100 mM sodium tartrate, optimal pH, 25 °C; read-out: Ape-MnP1 Q333P
Ape-MnP1 [2] = settings: read-out: Ape-MnP1 Q333P; 0.3 mM H2O2, 100 mM sodium tartrate, optimal pH, 25 °C
purified protein [3] = substrate: COc1cccc(OC)c1O; assay: purified protein; format: biochemical, Agrocybe pediades; settings: 0.3 mM H2O2, 100 mM sodium tartrate, optimal pH, 25 °C
purified protein [4] = substrate: CCn1c(=NN=c2sc3cc(S(=O)(=O)O)ccc3n2CC)sc2cc(S(=O)(=O)O)ccc21; assay: purified protein; format: biochemical, Agrocybe pediades; settings: 0.3 mM H2O2, 100 mM sodium tartrate, optimal pH, 25 °C
purified protein [5] = substrate: COc1cccc(OC)c1O; assay: purified protein; format: biochemical, Cyathus striatus; settings: 0.3 mM H2O2, 100 mM sodium tartrate, optimal pH, 25 °C
purified protein [6] = substrate: CCn1c(=NN=c2sc3cc(S(=O)(=O)O)ccc3n2CC)sc2cc(S(=O)(=O)O)ccc21; assay: purified protein; format: biochemical, Cyathus striatus; settings: 0.3 mM H2O2, 100 mM sodium tartrate, optimal pH, 25 °C

Molecule	Km (purified protein [5])	kcat (purified protein [5])	kcat/Km (purified protein [5])	Km (purified protein [6])	kcat (purified protein [6])	kcat/Km (purified protein [6])	also measured
COc1cccc(OC)c1O [DMP]							Km (Ape-MnP1 [1]): 2900 ± 590 µM
CCn1c(=NN=c2sc3cc(S(=O)(=O)O)ccc3n2CC)sc2cc(S(=O)(=O)O)ccc21 [ABTS]							Km (Ape-MnP1 [2]): 1890 ± 250 µM
B1							Km (purified protein [3]): 2880 ± 490 µM; kcat (purified protein [3]): 11.5 ± 0.8 s⁻¹; kcat/Km (purified protein [3]): 4200 ± 500 M⁻¹ s⁻¹; Km (purified protein [4]): 2730 ± 280 µM; kcat (purified protein [4]): 146 ± 6 s⁻¹; kcat/Km (purified protein [4]): 53000 ± 6000 M⁻¹ s⁻¹
B2	4650 ± 560 µM	4.2 ± 0.2 s⁻¹	980 ± 120 M⁻¹ s⁻¹	3250 ± 220 µM	60 ± 1.4 s⁻¹	18000 ± 1300 M⁻¹ s⁻¹	
B3				2990 ± 455 µM	112 ± 4.6 s⁻¹	37500 ± 5900 M⁻¹ s⁻¹	
B4	2120 ± 500 µM	2.62 ± 0.17 s⁻¹	1240 ± 300 M⁻¹ s⁻¹	1900 ± 455 µM	67 ± 18 s⁻¹	35500 ± 12800 M⁻¹ s⁻¹	
